Here are results for 1 protein from article PMC8850199, “Structure, mechanism and lipid-mediated remodeling of the mammalian Na^+/H^+ exchanger NHA2” (Nature Structural & Molecular Biology, 2022).

The data set concerns the molecule itself. As to the kind of experiment: native MS; detergent-purified NHA2ΔN exchanged into C12E9, ~20 μM, Q-Exactive Orbitrap modified for high m/z.

B1: bison NHA2ΔN (SLC9B2 without the first 69 residues), GFP-TwinStrep-His8 tag removed with TEV protease (domain or fragment, Bison bison)
chain: RRRQIHACPPRGLLARVITNVTMVILLWAVVWSVTGSECLPGGNLFGIIMLFYCAIIGGKLFGLIKLPTLPPLPPLLGMLLAGFLIRNVPVISDNIQIKHKWSSALRSIALSVILVRAGLGLDSNALKKLKGVCVRLSLGPCLIEACTSAVLAYFLMGLPWQWGFMLGFVLGAVSPAVVVPSMLLLQEGGYGVEKGIPTLLMAAGSFDDILAITGFNTCLGMAFSTGSTVFNVLKGVLEVIIGVVTGLVLGFFIQYFPSSDQDNLVWKRAFLVLGLSVLAVFSSTYFGFPGSGGLCTLVTAFLAGRGWASTKTDVEKVIAVAWDIFQPLLFGLIGAEVLITALRPETIGLCVATLGIAVLIRILVTYLMVCFAGFNIKEKIFISFAWLPKATVQAAIGSVALDTARSHGEKQLEGYGMDVLTVAFLSIIITAPVGSLLIGLLGPRLLQKAEQNKDEEDQGETSIQV
notes: Na+/H+ exchanger NHA2 (SLC9B2), Bison bison, without the first 69 residues of the N-terminal tail; numbers count on: the full-length bison NHA2 as printed; residues of it stay on the C-terminus after digestion; also called biNHA2ΔN; source: S. cerevisiae FGY217, purified (DDM/CHS, Ni-NTA, TEV digestion, SEC); for nanodiscs reconstituted as GFP fusion with MSP1E2 and yeast PI, then TEV digestion …
As to B1, the “stoichiometry N” value amounted to 2.

The stoichiometry N is a count of units in the complex or per binding partner.
